# Source: patent US9181296B2, “Stabilized liquid enzyme compositions” (NOVOZYMES A/S, priority 2008, dated 2015)
# Biological target: T1, Protease (Savinase 16.0 LEX) (Lederbergia lenta, UniProt P29600)
# T1 construct: purchased Novozymes Savinase 16.0 LEX
# T1 sequence (P29600 1-269): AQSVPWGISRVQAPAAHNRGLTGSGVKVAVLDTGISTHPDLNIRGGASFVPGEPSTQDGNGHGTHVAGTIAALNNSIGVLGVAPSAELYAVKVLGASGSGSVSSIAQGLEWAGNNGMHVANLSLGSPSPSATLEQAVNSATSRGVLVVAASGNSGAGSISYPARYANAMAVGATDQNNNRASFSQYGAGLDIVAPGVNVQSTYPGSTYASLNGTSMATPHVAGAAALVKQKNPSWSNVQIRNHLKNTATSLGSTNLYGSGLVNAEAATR
# Test: Storage stability of protease in liquid detergent N with stabilizer (Example 3)
# Assay type: biochemical
# Details: 1 week 40° C.
# Protocol: Peptide aldehydes Z-GAF-H, Z-GAL-H and Z-GAY-H were produced by peptide synthesis, all with a purity >80%. The peptide aldehydes were dissolved in DMSO to a concentration of 10 mg/ml before use.
# The following detergent N with enzymes was prepared:
# The following detergents with stabilizer according to the invention were prepared and normalized to 100 g of detergent:
# The detergents were placed in closed glasses at 40° C. Residual activity of protease was measured (by comparison to a reference stored at −18° C.) after 1 week, using standard enzyme analytical methods (protease measured by hydrolysis of N,N-dimethylcasein at 40° C., pH 8.3).
substance,measurement,setting,value
Z-GAY-H,Molar surplus of inhibitor relative to protease needed to reach the same residual activities as the other peptide aldehydes,compared with Z-GAL-H and Z-GAF-H in detergent N,approximately half
same,Efficiency for stabilizing the protease (in words),detergent N,most efficient
